Experimental data taken from publication doi:10.1101/2023.02.27.530186 (bioRxiv, 2023).

What was measured:
[1] = target: T3 SAMase E68Q/Q94A, C-terminally His6-tagged (bacteriophage T3) (UniProt P07693); assay: mass photometry
[2] = target: T3 SAMase E68Q/Q94A, C-terminally His6-tagged (bacteriophage T3) (UniProt P07693); assay: SEC-SAXS
[3] = target: T3 SAMase, wild type, C-terminally His6-tagged (bacteriophage T3) (UniProt P07693); assay: SEC-SAXS
[4] = target: T3 SAMase, wild type, C-terminally His6-tagged (bacteriophage T3) (UniProt P07693); assay: cryo-EM structure
[5] = target: the molecule itself; assay: cryo-EM structure

B1: MetK, SAM synthase (methionine adenosyltransferase) of E. coli, endogenous (enzyme, UniProt P0A817 1-384, looked up)
chain: MAKHLFTSESVSEGHPDKIADQISDAVLDAILEQDPKARVACETYVKTGMVLVGGEITTSAWVDIEEITRNTVREIGYVHSDMGFDANSCAVLSAIGKQSPDINQGVDRADPLEQGAGDQGLMFGYATNETDVLMPAPITYAHRLVQRQAEVRKNGTLPWLRPDAKSQVTFQYDDGKIVGIDAVVLSTQHSEEIDQKSLQEAVMEEIIKPILPAEWLTSATKFFINPTGRFVIGGPMGDCGLTGRKIIVDTYGGMARHGGGAFSGKDPSKVDRSAAYAARYVAKNIVAAGLADRCEIQVSYAIGVAEPTSIMVETFGTEKVPSEQLTLLVREFFDLRPYGLIQMLDLLHPIYKETAAYGHFGREHFPWEKTDKAQLLRDAAGLK
stoichiometry N (SAMase per MetK subunit (4:4)) [1]: 1 | stoichiometry N (SAMase per MetK subunit (4:4)) [2]: 1 | stoichiometry N (SAMase per MetK subunit (4:4)) [3]: 1 | stoichiometry N (SAMase per MetK subunit (4:4)) [4]: 1 | stoichiometry N [5]: 4
